Laboratory results from publication PMC8445988, “Characterization of two β-galactosidases LacZ and WspA1 from Nostoc flagelliforme with focus on the latter’s central active region” (Scientific Reports, 2021).

How the values were obtained:
purified protein = substrate: O=[N+]([O-])c1ccccc1O[C@@H]1O[C@H](CO)[C@H](O)[C@H](O)[C@H]1O; assay: purified protein
[1] = biological target: the molecule itself; assay: SEC; gel filtration on an FPLC system (AKTA purifier), 20 mM Tris-HCl, 150 mM NaCl, 10% glycerol, pH 7.5; five molecular weight markers (200, 150, 66, 29, 12.4 kDa); absorbance at 280 nm

B1: Nf-LacZ (β-galactosidase LacZ of Nostoc flagelliforme) (enzyme, UniProt A0A2K8T1B7 1-619, looked up)
chain: MKLLDIQKRKVESPSNRDNQRVSSFPEAGYPRPQLQRSHWLSLNGLWKFAFDNEGRCVQPGDIEGWTHHIQVPFAPESTKSGIGDTGFHPNCWYEREFETPEGDGRLLLHFGAVDYRARVWVNGQYMIEHEGGHTPFTLDITTVLNDTGITKVTVWAQDDPGDLAKPRGKQDWQLEPHSIWYPRTSGIWQTVWIERVGRTYIDSIRWSPDFERWEVGCYAAIAGDAPAGIQIKVKLSIGNTVLANDTYEVFNGEIGRRISLSDPGIDDYRNELLWSPEKPTLMDAHIELWHNNQLLDEAKSYTAMRTVGIQRDRFMLNGRPYYLRLVLDQGYWPDSLMTAPDDGALRRDVELTKAMGFNGVRKHQKIEDPRFLYWADKLGLLVWEEMPSAYRFTPKAVERTTREWAEVIRRDISHPCIVAWVTFNESWGVPNLVETAAHRNYVLAMYHLTKTLDPGRPVIANDGWESTDTDILAIHDYDTHPQRLGHRYGPEVKLSDLFDRKRPGGRILTLDNFPHQGQPVMLTEFGGIAYAPVDNPDADKAWGYERCSNISELEIKYATLLETINDIELFSGFCYTQFTDTFQEANGLLYADRTPKFPIEAIRAATLSGQGLCTPTSC
notes: β-galactosidase LacZ homolog of Nostoc flagelliforme, NCBI AUB41471, gene COO91_07519 (KEGG); 619 amino acid residues, calculated 70.8 kDa; The number of chains in the multimer is left open (at least a trimer or larger); also called COO91_07519; AUB41471
Km (purified protein): 500 µM
stoichiometry N [1]: ≥ 3
